The target in series [1] is T1, Pot1pC (Schizosaccharomyces pombe, UniProt O13988 178-389).
T1 sequence: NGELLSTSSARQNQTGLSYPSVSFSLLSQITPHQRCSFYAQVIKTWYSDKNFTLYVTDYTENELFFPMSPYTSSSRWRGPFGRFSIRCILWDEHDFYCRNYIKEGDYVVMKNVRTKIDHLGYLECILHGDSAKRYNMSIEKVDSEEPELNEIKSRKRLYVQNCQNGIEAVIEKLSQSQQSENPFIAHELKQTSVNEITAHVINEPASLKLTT
In words: EMSA. (In general: A gel shift assay detects complexes by their altered migration in electrophoresis.)

In the next series the target is T2, Pot1-DBD_V97A (Schizosaccharomyces pombe, UniProt O13988 1-389, V97A).
T2 sequence: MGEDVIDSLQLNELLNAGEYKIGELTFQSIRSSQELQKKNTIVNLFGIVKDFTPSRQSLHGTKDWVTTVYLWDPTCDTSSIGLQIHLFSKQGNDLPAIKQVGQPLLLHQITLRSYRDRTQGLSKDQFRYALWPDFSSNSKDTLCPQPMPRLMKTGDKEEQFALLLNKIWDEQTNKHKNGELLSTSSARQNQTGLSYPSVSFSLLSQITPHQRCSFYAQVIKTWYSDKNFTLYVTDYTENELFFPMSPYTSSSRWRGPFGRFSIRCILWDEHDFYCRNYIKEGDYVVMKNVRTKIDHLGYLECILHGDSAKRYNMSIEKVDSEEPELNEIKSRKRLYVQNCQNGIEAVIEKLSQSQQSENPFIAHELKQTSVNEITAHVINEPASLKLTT
The series can be described thus: filter binding.

The target in another series is T3, Pot1-DBD_Q91A (Schizosaccharomyces pombe, UniProt O13988 1-389, Q91A).
T3 sequence: T2 sequence with Q91A, A97V
In words: filter binding.

Another series deals with T4, Pot1-DBD (Schizosaccharomyces pombe, UniProt O13988 1-389).
T4 sequence: T2 sequence with A97V
The series can be described thus: filter binding.

The next series concerns the target T5, Pot1pN (Schizosaccharomyces pombe, UniProt O13988 1-185).
T5 sequence: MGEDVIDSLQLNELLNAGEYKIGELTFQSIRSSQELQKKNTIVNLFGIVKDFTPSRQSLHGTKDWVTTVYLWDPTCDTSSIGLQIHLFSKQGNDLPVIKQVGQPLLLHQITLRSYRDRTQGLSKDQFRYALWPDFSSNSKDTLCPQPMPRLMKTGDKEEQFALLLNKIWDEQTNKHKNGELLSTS
In words: filter binding.

Another series deals with T6, Pot1pN_D64A (Schizosaccharomyces pombe, UniProt O13988 1-185, D64A).
T6 sequence: T5 sequence with D64A
In words: filter binding.

Another series addresses T7, Pot1pN_Y115A (Schizosaccharomyces pombe, UniProt O13988 1-185, Y115A).
T7 sequence: T5 sequence with Y115A
In words: filter binding.

Another series has as its target T8, Pot1pN_T62A (Schizosaccharomyces pombe, UniProt O13988 1-185, T62A).
T8 sequence: T5 sequence with T62A
In words: filter binding.

The target of the next series is T9, Pot1pN_S123A (Schizosaccharomyces pombe, UniProt O13988 1-185, S123A).
T9 sequence: T5 sequence with S123A
In words: filter binding.

Series [2] addresses T1, Pot1pC. The series can be described thus: EMSA. This is another data set of the same source.

Residue numbers refer to the chain shown, from its start. Read-outs that look alike come from different tables or passages of the source.

With GGTTACGGT (ssDNA) [9mer-3'], the Kd (usually the equilibrium constant for the complex coming apart) with Pot1pC [1] worked out at 400 ± 70 nM.
Same read-out and setting: with GGTTAGGGT (ssDNA) [9mer_C6G] the figure was 300 ± 50 nM.
Take GGTTTCGGTTAC (ssDNA) [12mer_A5T]: in the series with Pot1-DBD_V97A, the affinity, expressed as Kd, was 50 ± 4 nM.
With CCAATGCCCAATGC (ssDNA) [C-rich complementary sequence], the binding result with Pot1pC [1] is on record as “no binding”.
For the molecule GGTTACGGTTACGGT (ssDNA) [15mer], the dissociation constant (Kd) in the series with Pot1-DBD_Q91A came to 0.04 ± 0.003 nM; in the series with Pot1-DBD_V97A, 0.04 ± 0.004 nM. The binding result with Pot1-DBD is “binds”.
In the case of GGTTACCGT (ssDNA) [9mer_G7C], the Kd with Pot1pC [1] is 3000 ± 500 nM.
Regarding GGTTACGGTTA (ssDNA) [11mer-3'], binding with Pot1pC [1] was put at a Kd of 600 ± 100 nM.
As to GGTAACGGT (ssDNA) [9mer_T4A], in the series with Pot1pC [1], the Kd stood at 700 ± 300 nM.
Molecule GGTTAGGGTTAC (ssDNA) [12mer_C6G] showed a Kd with Pot1-DBD_V97A of 100 ± 10 nM.
The molecule GGATACGGT (ssDNA) [9mer_T3A] had a Kd with Pot1pC [1] of 600 ± 100 nM.
On the same count and under the same terms, the value for CGTTACGGT (ssDNA) [9mer_G1C] was 1000 ± 100 nM; that for GGTTACGGTT (ssDNA) [10mer-3'] was 300 ± 40 nM.
Regarding GGTTAC (ssDNA) [6mer], the dissociation constant Kd in the series with Pot1pN was determined as 30 ± 20 nM; with Pot1pN_D64A, 400 ± 30 nM; in the series with Pot1pN_Y115A, 300 ± 20 nM; with Pot1pN_T62A, 500 ± 50 nM; with Pot1pN_S123A it was 100 ± 10 nM.
GGTTACGGA (ssDNA) [9mer_T9A] came in with a Kd with Pot1pC [1] of 2000 ± 400 nM.
As for ACGGTTAC (ssDNA) [8mer-5'], in the series with Pot1pC [2], the dissociation constant (Kd) came to 15000 ± 2000 nM.
Turning to GGTTACGGTTACGGTTACGGTTAC (ssDNA) [24mer], the Kd in the series with Pot1-DBD_Q91A worked out at 0.06 ± 0.003 nM; in the series with Pot1-DBD_V97A, 0.06 ± 0.004 nM.
Molecule GGTTACG (ssDNA) [7mer-3'] yielded a dissociation constant (Kd) with Pot1pC [2] of 10500 ± 1900 nM.
On the same count and under the same terms, the value for CGGTTAC (ssDNA) [7mer-5'] was 35000 ± 8000 nM.
As to GGTTACGCT (ssDNA) [9mer_G8C], the Kd with Pot1pC [1] is 800 ± 200 nM.
In the case of CGTTACGGTTAC (ssDNA) [12mer_G1C], the dissociation constant Kd in the series with Pot1-DBD_Q91A is 50 ± 6 nM; in the series with Pot1-DBD_V97A, 70 ± 7 nM.
For GGTTACGG (ssDNA) [8mer-3'], binding with Pot1pC [1] was put at a Kd of 1900 ± 300 nM.
Still for that read-out and setting: the value for GCTTACGGT (ssDNA) [9mer_G2C] was 3000 ± 600 nM.

(Values after PMC2756145.)
